Results: patent publication US20210388087A1 (Chugai, published 2021)

B1: CE115HA000 D101Y one-arm antibody (antibody, human IgG1, kappa, L234A L235A, N297A, name in Kabat numbering)
heavy: QVQLVESGGGVVQPGRSLRLSCAASGFTFSNAWMHWVRQAPGKGLEWVAQIKAKSNNYATYYAESVKGRFTISRDDSKNSLYLQMNSLKTEDTAVYYCRYVHYGAYYGVYAWGQGTTVTVSSASTKGPSVFPLAPSSKSTSGGTAALGCLVKDYFPEPVTVSWNSGALTSGVHTFPAVLQSSGLYSLSSVVTVPSSSLGTQTYICNVNHKPSNTKVDKKVEPKSCDKTHTCPPCPAPEAAGGPSVFLFPPKPKDTLMISRTPEVTCVVVDVSHEDPEVKFNWYVDGVEVHNAKTKPREEQYASTYRVVSVLTVLHQDWLNGKEYKCKVSNKALPAPIEKTISKAKGQPREPQVYTLPPSRCELTKNQVSLSCAVKGFYPSDIAVEWESNGQPENNYKTTPPVLDSDGSFFLVSKLTVDKSRWQQGNVFSCSVMHEALHNHYTQKSLSLSPDYKDDDDK
chain: EPKSSDKTHTCPPCPAPELLGGPSVFLFPPKPKDTLMISRTPEVTCVVVDVSHEDPEVKFNWYVDGVEVHNAKTKPREEQYNSTYRVVSVLTVLHQDWLNGKEYKCKVSNKALPAPIEKTISKAKGQPREPQVCTLPPSRDELTKNQVSLWCLVKGFYPSDIAVEWESNGQPENNYKTTPPVLDSDGSFFLYSKLTVDKSRWQQGNVFSCSVMHEALHNRYTQKSLSLSP
light: DIVMTQSPLSLPVTPGEPASISCRSSQSLVHSNRNTYLHWYQQKPGQAPRLLIYKVSNRFSGVPDRFSGSGSGTDFTLKISRVEAEDVGVYYCGQGTQVPYTFGQGTKLEIKRTVAAPSVFIFPPSDEQLKSGTASVVCLLNNFYPREAKVQWKVDNALQSGNSQESVTEQDSKDSTYSLSSTLTLSKADYEKHKVYACEVTHQGLSSPVTKSFNRGEC
B2: CE115HA000 E61Q one-arm antibody (antibody, human IgG1, kappa, L234A L235A, N297A, name in Kabat numbering)
heavy: QVQLVESGGGVVQPGRSLRLSCAASGFTFSNAWMHWVRQAPGKGLEWVAQIKAKSNNYATYYAQSVKGRFTISRDDSKNSLYLQMNSLKTEDTAVYYCRYVHYGAYYGVDAWGQGTTVTVSSASTKGPSVFPLAPSSKSTSGGTAALGCLVKDYFPEPVTVSWNSGALTSGVHTFPAVLQSSGLYSLSSVVTVPSSSLGTQTYICNVNHKPSNTKVDKKVEPKSCDKTHTCPPCPAPEAAGGPSVFLFPPKPKDTLMISRTPEVTCVVVDVSHEDPEVKFNWYVDGVEVHNAKTKPREEQYASTYRVVSVLTVLHQDWLNGKEYKCKVSNKALPAPIEKTISKAKGQPREPQVYTLPPSRCELTKNQVSLSCAVKGFYPSDIAVEWESNGQPENNYKTTPPVLDSDGSFFLVSKLTVDKSRWQQGNVFSCSVMHEALHNHYTQKSLSLSPDYKDDDDK
chain: EPKSSDKTHTCPPCPAPELLGGPSVFLFPPKPKDTLMISRTPEVTCVVVDVSHEDPEVKFNWYVDGVEVHNAKTKPREEQYNSTYRVVSVLTVLHQDWLNGKEYKCKVSNKALPAPIEKTISKAKGQPREPQVCTLPPSRDELTKNQVSLWCLVKGFYPSDIAVEWESNGQPENNYKTTPPVLDSDGSFFLYSKLTVDKSRWQQGNVFSCSVMHEALHNRYTQKSLSLSP
light: DIVMTQSPLSLPVTPGEPASISCRSSQSLVHSNRNTYLHWYQQKPGQAPRLLIYKVSNRFSGVPDRFSGSGSGTDFTLKISRVEAEDVGVYYCGQGTQVPYTFGQGTKLEIKRTVAAPSVFIFPPSDEQLKSGTASVVCLLNNFYPREAKVQWKVDNALQSGNSQESVTEQDSKDSTYSLSSTLTLSKADYEKHKVYACEVTHQGLSSPVTKSFNRGEC
B3: CE115HA000 F29V one-arm antibody (antibody, human IgG1, kappa, L234A L235A, N297A, name in Kabat numbering)
heavy: QVQLVESGGGVVQPGRSLRLSCAASGFTVSNAWMHWVRQAPGKGLEWVAQIKAKSNNYATYYAESVKGRFTISRDDSKNSLYLQMNSLKTEDTAVYYCRYVHYGAYYGVDAWGQGTTVTVSSASTKGPSVFPLAPSSKSTSGGTAALGCLVKDYFPEPVTVSWNSGALTSGVHTFPAVLQSSGLYSLSSVVTVPSSSLGTQTYICNVNHKPSNTKVDKKVEPKSCDKTHTCPPCPAPEAAGGPSVFLFPPKPKDTLMISRTPEVTCVVVDVSHEDPEVKFNWYVDGVEVHNAKTKPREEQYASTYRVVSVLTVLHQDWLNGKEYKCKVSNKALPAPIEKTISKAKGQPREPQVYTLPPSRCELTKNQVSLSCAVKGFYPSDIAVEWESNGQPENNYKTTPPVLDSDGSFFLVSKLTVDKSRWQQGNVFSCSVMHEALHNHYTQKSLSLSPDYKDDDDK
chain: EPKSSDKTHTCPPCPAPELLGGPSVFLFPPKPKDTLMISRTPEVTCVVVDVSHEDPEVKFNWYVDGVEVHNAKTKPREEQYNSTYRVVSVLTVLHQDWLNGKEYKCKVSNKALPAPIEKTISKAKGQPREPQVCTLPPSRDELTKNQVSLWCLVKGFYPSDIAVEWESNGQPENNYKTTPPVLDSDGSFFLYSKLTVDKSRWQQGNVFSCSVMHEALHNRYTQKSLSLSP
light: DIVMTQSPLSLPVTPGEPASISCRSSQSLVHSNRNTYLHWYQQKPGQAPRLLIYKVSNRFSGVPDRFSGSGSGTDFTLKISRVEAEDVGVYYCGQGTQVPYTFGQGTKLEIKRTVAAPSVFIFPPSDEQLKSGTASVVCLLNNFYPREAKVQWKVDNALQSGNSQESVTEQDSKDSTYSLSSTLTLSKADYEKHKVYACEVTHQGLSSPVTKSFNRGEC
B4: CE115HA000 E61P one-arm antibody (antibody, human IgG1, kappa, L234A L235A, N297A, name in Kabat numbering)
heavy: QVQLVESGGGVVQPGRSLRLSCAASGFTFSNAWMHWVRQAPGKGLEWVAQIKAKSNNYATYYAPSVKGRFTISRDDSKNSLYLQMNSLKTEDTAVYYCRYVHYGAYYGVDAWGQGTTVTVSSASTKGPSVFPLAPSSKSTSGGTAALGCLVKDYFPEPVTVSWNSGALTSGVHTFPAVLQSSGLYSLSSVVTVPSSSLGTQTYICNVNHKPSNTKVDKKVEPKSCDKTHTCPPCPAPEAAGGPSVFLFPPKPKDTLMISRTPEVTCVVVDVSHEDPEVKFNWYVDGVEVHNAKTKPREEQYASTYRVVSVLTVLHQDWLNGKEYKCKVSNKALPAPIEKTISKAKGQPREPQVYTLPPSRCELTKNQVSLSCAVKGFYPSDIAVEWESNGQPENNYKTTPPVLDSDGSFFLVSKLTVDKSRWQQGNVFSCSVMHEALHNHYTQKSLSLSPDYKDDDDK
chain: EPKSSDKTHTCPPCPAPELLGGPSVFLFPPKPKDTLMISRTPEVTCVVVDVSHEDPEVKFNWYVDGVEVHNAKTKPREEQYNSTYRVVSVLTVLHQDWLNGKEYKCKVSNKALPAPIEKTISKAKGQPREPQVCTLPPSRDELTKNQVSLWCLVKGFYPSDIAVEWESNGQPENNYKTTPPVLDSDGSFFLYSKLTVDKSRWQQGNVFSCSVMHEALHNRYTQKSLSLSP
light: DIVMTQSPLSLPVTPGEPASISCRSSQSLVHSNRNTYLHWYQQKPGQAPRLLIYKVSNRFSGVPDRFSGSGSGTDFTLKISRVEAEDVGVYYCGQGTQVPYTFGQGTKLEIKRTVAAPSVFIFPPSDEQLKSGTASVVCLLNNFYPREAKVQWKVDNALQSGNSQESVTEQDSKDSTYSLSSTLTLSKADYEKHKVYACEVTHQGLSSPVTKSFNRGEC
B5: CE115HA000 E61A one-arm antibody (antibody, human IgG1, kappa, L234A L235A, N297A, name in Kabat numbering)
heavy: QVQLVESGGGVVQPGRSLRLSCAASGFTFSNAWMHWVRQAPGKGLEWVAQIKAKSNNYATYYAASVKGRFTISRDDSKNSLYLQMNSLKTEDTAVYYCRYVHYGAYYGVDAWGQGTTVTVSSASTKGPSVFPLAPSSKSTSGGTAALGCLVKDYFPEPVTVSWNSGALTSGVHTFPAVLQSSGLYSLSSVVTVPSSSLGTQTYICNVNHKPSNTKVDKKVEPKSCDKTHTCPPCPAPEAAGGPSVFLFPPKPKDTLMISRTPEVTCVVVDVSHEDPEVKFNWYVDGVEVHNAKTKPREEQYASTYRVVSVLTVLHQDWLNGKEYKCKVSNKALPAPIEKTISKAKGQPREPQVYTLPPSRCELTKNQVSLSCAVKGFYPSDIAVEWESNGQPENNYKTTPPVLDSDGSFFLVSKLTVDKSRWQQGNVFSCSVMHEALHNHYTQKSLSLSPDYKDDDDK
chain: EPKSSDKTHTCPPCPAPELLGGPSVFLFPPKPKDTLMISRTPEVTCVVVDVSHEDPEVKFNWYVDGVEVHNAKTKPREEQYNSTYRVVSVLTVLHQDWLNGKEYKCKVSNKALPAPIEKTISKAKGQPREPQVCTLPPSRDELTKNQVSLWCLVKGFYPSDIAVEWESNGQPENNYKTTPPVLDSDGSFFLYSKLTVDKSRWQQGNVFSCSVMHEALHNRYTQKSLSLSP
light: DIVMTQSPLSLPVTPGEPASISCRSSQSLVHSNRNTYLHWYQQKPGQAPRLLIYKVSNRFSGVPDRFSGSGSGTDFTLKISRVEAEDVGVYYCGQGTQVPYTFGQGTKLEIKRTVAAPSVFIFPPSDEQLKSGTASVVCLLNNFYPREAKVQWKVDNALQSGNSQESVTEQDSKDSTYSLSSTLTLSKADYEKHKVYACEVTHQGLSSPVTKSFNRGEC
B6: CE115HA000 E61D one-arm antibody (antibody, human IgG1, kappa, L234A L235A, N297A, name in Kabat numbering)
heavy: QVQLVESGGGVVQPGRSLRLSCAASGFTFSNAWMHWVRQAPGKGLEWVAQIKAKSNNYATYYADSVKGRFTISRDDSKNSLYLQMNSLKTEDTAVYYCRYVHYGAYYGVDAWGQGTTVTVSSASTKGPSVFPLAPSSKSTSGGTAALGCLVKDYFPEPVTVSWNSGALTSGVHTFPAVLQSSGLYSLSSVVTVPSSSLGTQTYICNVNHKPSNTKVDKKVEPKSCDKTHTCPPCPAPEAAGGPSVFLFPPKPKDTLMISRTPEVTCVVVDVSHEDPEVKFNWYVDGVEVHNAKTKPREEQYASTYRVVSVLTVLHQDWLNGKEYKCKVSNKALPAPIEKTISKAKGQPREPQVYTLPPSRCELTKNQVSLSCAVKGFYPSDIAVEWESNGQPENNYKTTPPVLDSDGSFFLVSKLTVDKSRWQQGNVFSCSVMHEALHNHYTQKSLSLSPDYKDDDDK
chain: EPKSSDKTHTCPPCPAPELLGGPSVFLFPPKPKDTLMISRTPEVTCVVVDVSHEDPEVKFNWYVDGVEVHNAKTKPREEQYNSTYRVVSVLTVLHQDWLNGKEYKCKVSNKALPAPIEKTISKAKGQPREPQVCTLPPSRDELTKNQVSLWCLVKGFYPSDIAVEWESNGQPENNYKTTPPVLDSDGSFFLYSKLTVDKSRWQQGNVFSCSVMHEALHNRYTQKSLSLSP
light: DIVMTQSPLSLPVTPGEPASISCRSSQSLVHSNRNTYLHWYQQKPGQAPRLLIYKVSNRFSGVPDRFSGSGSGTDFTLKISRVEAEDVGVYYCGQGTQVPYTFGQGTKLEIKRTVAAPSVFIFPPSDEQLKSGTASVVCLLNNFYPREAKVQWKVDNALQSGNSQESVTEQDSKDSTYSLSSTLTLSKADYEKHKVYACEVTHQGLSSPVTKSFNRGEC

What follows are binders tested against T1, CD3 epsilon homodimer protein (UniProt P07766 23-126) (assay: SPR (Biacore T200), CD3 epsilon homodimer on CM4 chip, one-arm antibody as analyte, 25 C;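 note: homodimer attached to the sensor surface via amine coupling, HBS-EP+ used as running buffer during binding runs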).
T1 construct: immobilized on Sensor chip CM4 by amine coupling; also called CD3 (CD3 epsilon)
T1 sequence (P07766 23-126): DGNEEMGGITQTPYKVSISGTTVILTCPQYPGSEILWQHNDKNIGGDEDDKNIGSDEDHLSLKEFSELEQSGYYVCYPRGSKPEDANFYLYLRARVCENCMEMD

Compared with B1, B2 is higher in “ratio of amounts bound (altered form / CE115HA000)” value: 0.49 for the first, 1.07 for the second.

First: B3
Second: B4
The “ratio of amounts bound (altered form / CE115HA000)” value of the first is lower: 0.36 for the first, 1.07 for the second.

First: B5
Second: B6
The “ratio of amounts bound (altered form / CE115HA000)” value of the first is higher: 1.09 for the first, 0.91 for the second.
